From patent US12383572B2, “Administration of an anti-activin-a compound to a subject” (AMGEN INC., priority 2013, dated 2025)

How the values were obtained:
[1] = sActRIIB single dose, withdrawal and re-administration in female Inhα KO mice: body weight; assay type: in vivo, mouse
Description: Eleven-to-fourteen-week-old female Inhα KO mice with body weight from 19.41 to 26.82 grams were subcutaneously (SC) injected with either 30 mg/kg sActRIIB or PBS. Age-matched WT littermate control mice were injected with PBS and served as baseline controls. The study ended by necropsy 2 weeks after injections. Two cohorts of mice were used in the study. Eleven-to-thirteen-week-old female Inhα KO mice with body weight from 17.7 to 27.4 grams were SC injected with either 30 mg/kg sAcLRIIB or PBS. Age-matched WT littermate control mice were injected with PBS and served as baseline controls. The withdrawal lasted for 8 weeks. At the end of the withdrawal, the sActRIIB treated mice were divided by balanced body weight into 2 groups (Group 3 and Group 4).
Group 2 and Group 3 were euthanized to examine the ovarian tumors. Group 4 received another dose of 30 mg/kg sActRIIB and the mice were euthanized together with the WT mice 4 weeks later (total 12 weeks). Mouse body weights were recorded once per week up to 12 weeks. For necropsy, mice were euthanized in a CO2 chamber. Normal ovaries in WT mice and ovarian tumors in Inhα KO mice were collected and weighed. All results were expressed as the mean±standard error of the mean (SEM). Statistical significance of difference between groups was analyzed using Student's 2-tailed t-test on MS Excel 5.0 software. […]

[2] = test system: TOV-21G, BAEC, MRC-5, CCD-Lu, U937 and THP-1 cultures; assay: Real-time RT-PCR of VEGF, Ang-1 and βA in cell cultures treated with recombinant activin-A; assay type: cell-based; conditions: sActRIIB added with recombinant activin-A
Description: ID NO: 291), [NT] ID NO: 292), and TaqMan probe [NT] ID NO: 293).

[3] = test system: VEGF, Ang-1, osteopontin, CD31 in TOV-21G tumors; assay: Immunostaining of angiogenesis factors and CD31 in TOV-21G xenograft tumor sections; assay type: in vivo, human; conditions: treated vs untreated sections
Description: TOV-21G xenograft. 5×10^6 TOV-21G ovarian cancer cells were implanted subcutaneously into individual female athymic nu/nu mice (Harlan). Treatment was initiated at day 12 after tumor implantation, when the average tumor volume reached approximately 150 mm^3. The mice received PBS, sActRIIB (30 mg/kg, SC, 1×/week) or activin-A antibody (30 mg/kg, SC, 2×/week). In a separate chemotherapy combination experiment, the mice were treated with PBS, sActRIIB (10 mg/kg, SC, 1×/week), 5-FU (50 mg/kg, IP, 3 cycles, 4 daily injections per cycle) or sActRIIB and 5-FU combination at the same doses above. Zinc-formalin fixed paraffin tumor tissue sections of 4 μm in thickness were prepared. The sections were subjected to antigen retrieval by microwave 3 min in Unmask solution (Vector H-3300) followed by incubation in 10 μg/ml Proteinase-K for 20 min and in 1% H2O2 in dH2O for 10 min at room temperature. The sections were further incubated in 0.1% Tween-20 in PBS for 3 min to permeabilize the cell membrane and in goat serum for 30 min to block non-specific binding. The sections were then incubated at room temperature with specific primary antibody for 3 hours followed by incubation in biotinylated or fluorescently labeled secondary antibody. […] The immunostained tissue sections were analyzed and photographed using a Nikon Eclipse 90i microscope equipped with DS-Ril camera. […]

TOV-21G cancer cells = assay: In vitro proliferation assay (IncuCyte live cell imaging); assay type: cell-based, human; conditions: increasing concentrations
Description: In vitro growth rates of TOV-21G cancer cells were analyzed by using a real-time live cell imaging system (IncuCyte) following the manufacturer's recommended protocol.

VEGF = assay: Serum VEGF immunoassay in inh-KO mice; assay type: in vivo, mouse; conditions: inh-KO mice with advanced tumors, single dose
Description: The serum VEGF levels in inh-KO mice were measured by using immunoassay kit (R & D Systems), and the levels of human VEGF and Ang-1 in cell line culture medium were quantified using ELISA kits purchased from Invitrogen (VEGF) and R & D Systems (Ang-1), by following the manufacturers' recommended protocols.

VEGF and Ang-1 = VEGF and Ang-1 immunostaining of inh-KO ovarian and testicular tumor sections; assay type: in vivo, mouse; conditions: ovarian and testicular tumors, inh-KO mice
Description: Zinc-formalin fixed paraffin tumor tissue sections of 4 μm in thickness were prepared. The sections were subjected to antigen retrieval by microwave 3 min in Unmask solution (Vector H-3300) followed by incubation in 10 μg/ml Proteinase-K for 20 min and in 1% H2O2 in dH2O for 10 min at room temperature. The sections were further incubated in 0.1% Tween-20 in PBS for 3 min to permeabilize the cell membrane and in goat serum for 30 min to block non-specific binding. The sections were then incubated at room temperature with specific primary antibody for 3 hours followed by incubation in biotinylated or fluorescently labeled secondary antibody. Substrate developed in Vector SG kit (SK-4700) or DAB and nuclear-counterstained in Vector Fast Red (H-3403) or in hematoxylin. The immunostained tissue sections were analyzed and photographed using a Nikon Eclipse 90i microscope equipped with DS-Ril camera. The primary antibodies used and their dilutions are as follows: VEGF (BD Pharmingen 550549) 1:20 or VEGF (Abcam ab46154) 1:100, active caspase-3 (Abcam ab32042) 1:50, Ang-1 (Abcam ab8451) 1:500, osteopontin (Abcam ab8448) 1:200, CD-31 (Abcam ab56299) 1:100, E-cadherin (Abcam ab76319) 1:80. For immunofluorescence staining, FITC-conjugated secondary antibody (Invitrogen) was added at 1:50 dilution in PBS and incubated for 30 min. Cell nuclei were counterstained with Vectashield PE (Vector).

[4] = test system: ovarian and testicular tumors; assay: Light microscopy (H & E) of inh-KO ovaries and testes; assay type: in vivo, mouse
Description: Testes and ovaries from inh-KO mice were fixed with Zinc-formalin. Tissue sections were subjected to H & E staining and then examined with a Nikon Eclipse 90i microscope.

B1: sActRIIB: extracellular domain of human activin type-2B receptor fused to IgG2 Fc; full length SEQ ID NO: 21 (Table 9) (protein, listed as Homo sapiens)
chain: ETRWCIYYNANWELERTNQSGLERCEGEQDKRLHCYASWRNSSGTIELVKKGCWLDDFNCYDRQECVATEENPQVYFCCCEGNFCNERFTHLPEAGGPEVTYEPPPTAPTGGGGSVECPPCPAPPVAGPSVFLFPPKPKDTLMISRTPEVTCVVVDVSHEDPEVQFNWYVDGVEVHNAKTKPREEQFNSTFRVVSVLTVVHQDWLNGKEYKCKVSNKGLPAPIEKTISKTKGQPREPQVYTLPPSREEMTKNQVSLTCLVKGFYPSDIAVEWESNGQPENNYKTTPPMLDSDGSFFLYSKLTVDKSRWQQGNVFSCSVMHEALHNHYTQKSLSLSPGK
body weight, first 4 weeks after single dose ([1]; 30 mg/kg SC single dose): sustained weight gain in Inhα KO mice that exceeded the level of WT littermate control
body weight after re-administration at week 8 (up to week 12) ([1]; second single dose 30 mg/kg): stimulated further weight gain
induction of VEGF and Ang-1 mRNA by recombinant activin-A [2]: prevented this induction of VEGF and Ang-1
induction of βA expression by recombinant activin-A [2]: blocked completely
CD31 immunostaining (newly formed microvessels) [3]: lack of such new microvessels
VEGF and Ang-1 immunostaining in tumor sections [3]: virtually none in the sActRIIB-treated sections
TOV-21G cell proliferation in vitro (TOV-21G cancer cells): no direct effect on TOV-21G cell proliferation in vitro
serum VEGF (VEGF): rapidly lowered the elevated VEGF to WT control levels
VEGF and Ang-1 immunoreactivities in tumor sections (VEGF and Ang-1): completely abolished the VEGF and Ang-1 inductions in the tumors
ovarian morphology by light microscopy ([4]; female inh-KO mice): the ovaries were normal in size and contained many recognizable follicles, minimal tumor cell invasion and few hemorrhagic lesions
testicular morphology by light microscopy ([4]; male inh-KO mice): the testes were normal in size and filled with seminiferous tubules, although the number of spermatogonia was less than normal and a few small areas still contained tumor cells
